Values of other authors as cited in US20250332099A1, “PROCESS FOR FORMULATING COMPOSITIONS COMPRISING GLUCAGON-LIKE-PEPTIDE-2 (GLP-2) ANALOGUES” (ZEALAND PHARMA A/S, priority 2021, published 2025).

half-life (compared with seven minutes for native GLP-2) | Compound | half-life in humans
– | Hy-His-Ala-Asp-Gly-Ser-Phe-Ser-Asp-Glu-Met-Asn-Thr-Ile-Leu-Asp-Asn-Leu-Ala-Ala-Arg-Asp-Phe-Ile-Asn-Trp-Leu-Ile-Gln-Thr-Lys-Ile-Thr-Asp-OH [GLP-2 [1-33]] | around 7 minutes
about two | CC[C@H](C)[C@H](NC(=O)[C@H](Cc1ccccc1)NC(=O)[C@H](CC(=O)O)NC(=O)[C@H](CCCNC(=N)N)NC(=O)[C@H](C)NC(=O)[C@H](C)NC(=O)[C@H](CC(C)C)NC(=O)[C@H](CC(N)=O)NC(=O)[C@H](CC(=O)O)NC(=O)[C@H](CC(C)C)NC(=O)[C@@H](NC(=O)[C@@H](NC(=O)[C@H](CC(N)=O)NC(=O)[C@H](CCSC)NC(=O)[C@H](CCC(=O)O)NC(=O)[C@H](CC(=O)O)NC(=O)[C@H](CO)NC(=O)[C@H](Cc1ccccc1)NC(=O)[C@H](CO)NC(=O)CNC(=O)[C@H](CC(=O)O)NC(=O)CNC(=O)[C@@H](N)Cc1c[nH]cn1)[C@@H](C)O)[C@@H](C)CC)C(=O)N[C@@H](CC(N)=O)C(=O)N[C@@H](Cc1c[nH]c2ccccc12)C(=O)N[C@@H](CC(C)C)C(=O)N[C@H](C(=O)N[C@@H](CCC(N)=O)C(=O)N[C@H](C(=O)N[C@@H](CCCCN)C(=O)N[C@H](C(=O)N[C@H](C(=O)N[C@@H](CC(=O)O)C(=O)O)[C@@H](C)O)[C@@H](C)CC)[C@@H](C)O)[C@@H](C)CC [teduglutide] | –
– | GLP-2 [3-33]: truncated GLP-2 [3-33] (DGSFSDEMNTILDNLAARDFINWLIQTKITD; Glucagon-like peptide 2; UniProt P01275 148-178, looked up, fragment) | 27 min
